Each block holds one compound with its values, some of them ahead of it.
What was measured:
[1] = molecular target: Svi3-3_d19 E105Q (environmental phage); experiment: SEC; HiLoad 16/60 Superdex 75 pg, 25 mM Tris-HCl, 150 mM NaCl, pH 8.0; His-tagged protein eluted from Ni Sepharose
[2] = molecular target: Svi3-3_d19 E69Q (environmental phage); experiment: as above
[3] = molecular target: Svi3-3_d19 E69A (environmental phage); experiment: as above
T3 SAMase = T3 SAMase (Enterobacteria phage T3, UniProt P07693); settings: 2 mM SAM, 50 mM NaPi pH 7.4, 25°C
Sequence of T3 SAMase (P07693 whole entry, the tested form may be a part): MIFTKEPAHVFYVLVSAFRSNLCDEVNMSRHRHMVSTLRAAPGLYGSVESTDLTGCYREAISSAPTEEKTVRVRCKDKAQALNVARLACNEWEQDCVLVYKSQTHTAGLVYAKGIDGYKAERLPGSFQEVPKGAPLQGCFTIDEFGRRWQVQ

[4] = molecular target: Svi3-3_d19 (N-terminally truncated 146 amino acid construct of SAMase Svi3-3, hexahistidine tag removed) (environmental phage); experiment: crystal structure; Svi3-3_d19 (10 mg/ml) crystallised with 5 mM SAM (product MTA bound), with 5 mM SAH, or without ligand; sitting drop, 293 K, 0.4-0.6 M ammonium phosphate; space group F4(1)32, one monomer in the asymmetric unit, trimer around the threefold crystallographic axis
[5] = molecular target: His6-tagged Svi3-3_d19 (environmental phage); experiment: SEC; HiLoad 16/60 Superdex 75 pg, 25 mM Tris-HCl, 150 mM NaCl, pH 8.0; His-tagged protein eluted from Ni Sepharose
[6] = molecular target: His6-tagged Svi3-3_d19 (environmental phage); experiment: SEC-SAXS; His6-tagged Svi3-3_d19 at 10-13 mg/ml with and without 5 mM SAM; Shodex KW403 column, 25 mM Tris-HCl pH 8.0, 150 mM NaCl

Compound: C[S+](CC[C@H](N)C(=O)O)C[C@H]1O[C@@H](n2cnc3c(N)ncnc32)[C@H](O)[C@@H]1O (stereo partly drawn) [SAM, S-(5’-Adenosyl)-L-methionine]
TLC of reaction products; ion exchange chromatography (T3 SAMase): The same assay was performed with T3 SAMase and Orf1

Compound: Svi3-3_d19 (N-terminally truncated 146 amino acid construct of SAMase Svi3-3, hexahistidine tag removed) (enzyme)
stoichiometry N [4]: 3

Compound: His6-tagged Svi3-3_d19 (enzyme)
stoichiometry N [5]: 3
stoichiometry N [6]: 3

The remaining lines, values ahead:

stoichiometry N [1]: 3
Compound: Svi3-3_d19 E105Q (enzyme)

stoichiometry N [2]: 3
Compound: Svi3-3_d19 E69Q (enzyme)

stoichiometry N [3]: 3
Compound: Svi3-3_d19 E69A (enzyme)
